Test results from patent US10683486B2, “Methods for producing hepatocytes” (BioLamina AB, priority 2015, dated 2020).

Legend:
hESC-derived hepatocytes = experiment: Immunostaining of hepatocyte markers and cytochrome P450 expression (hepatocyte maturation); assay type: cell-based, human
Method: Differentiation was initiated at 40% confluence, by replacing serum-free medium mTESR1 (Stem Cell Technologies) with endoderm differentiation medium—RPMI 1640 containing 1×B27 (Life Technologies), 100 ng/mL Activin A (PeproTech) and 50 ng/mL Wnt3a (R&D). The medium was changed every 24 hours, for 72 hours. On day 4, endoderm differentiation medium was replaced with hepatoblast differentiation medium, and this was renewed every second day for a further five days. The medium consisted of KO-DMEM (Life Technologies), Serum Replacement (Life Technologies), 0.5% Glutamax (Life Technologies), 1% non-essential amino acids (Life Technologies), 0.2% β-mercaptoethanol (Life Technologies) and 1% dimethyl sulofxide (Sigma) for 5 days. At Day 9, differentiating cells were cultured in hepatocyte maturation medium HepatoZYME (Life Technologies) containing 1% Glutamax (Life Technologies), supplemented with 10 ng/mL hepatocyte growth factor (Peprotech) and 20 ng/mL oncostatin m (Peprotech).
(§1) Immunocytochemistry analysis was subsequently performed on hESC-derived hepatocytes. Cell cultures were fixed in 100% ice-cold methanol at −20 degrees Celsius for 30 minutes, and adjacent cells were pre-washed twice with PBS buffer at room temperature. Cell monolayers were blocked with 0.1% PBS-Tween solution containing 10% bovine serum albumin for 1 hour. Subsequently, the monolayers were incubated with primary antibodies diluted in PBS-0.1% Tween/1% BSA at 4 degrees Celsius overnight. After 24 hours, the primary antibodies were removed and the fixed monolayers were washed three times with PBS-0.1% Tween/1% BSA. Cells were incubated with appropriate secondary antibodies diluted in PBS-0.1% Tween/1% BSA for one hour at room temperature and washed with three times with PBS. Cultures were then mounted with PermaFluor™ Aqueous Mounting Medium and counterstained with NucBlue Hoescht 33342. The cells were imaged with the Zeiss Axio Observer Z1 microscope with LD PlanNeoFluar objective lenses, and a Zeiss AxioCamMR3 camera was used for image acquisition. The images were processed through Zeiss Axiovision SE 64 Rel 4.8 and analyzed using Zeiss Axiovision version 4.9.1.0. The percentage of positive cells and standard deviation was estimated from at least five random fields of view.
Post-hepatoblast specification, cell cultures were differentiated toward hepatocytes. Hepatocyte specification was assessed by immunostaining for albumin (ALB), E-cadherin (E CAD), cellular proliferation marker (Ki67), cytochrome p450 2D6 (CYP2D6), and cytochrome p450 3A4 (CYP3A4).
FIG. 5 is a set of nine photomicrographs of hepatic cells on day 18 of differentiation.
Given that cell organisation and cell division are important factors in hepatocyte function, hepatocyte metabolic capacity in vitro was studied. Stem cell derived hepatocytes were first examined for cytochrome P450 expression using well characterised antisera. CYP3A and CYP1A2 activity were measured from days 16-26 using pGlo technology. CYP activity was expressed as relative light units (RLU) per milliliter of media per milligram of protein. Levels of significance were measured by student t-test.
FIG. 6 is a set of six photomicrographs and two bar graphs of gene expression in hepatic cells.

[1] = system: H9 human embryonic stem cells (hESCs); experiment: Immunofluorescent staining of OCT4 and Nanog in pluripotent stem cells on the substrates prior to differentiation; assay type: cell-based; details: 24 hours post-replating
Method: H9 human embryonic stem cells (hESCs) were cultured and maintained in a humidified 37° C., 5% CO2 incubator. Three different substrates were then prepared in 96-well plates. The first substrate was pre-coated with Matrigel® (MG), and served as a control. The second substrate was coated with 5 micrograms per square centimeter (μg/cm^2) of laminin-521 (LN-521).
as §1, with “Immunocytochemistry analysis was subsequently performed on hESC-derived hepatocytes.” left out, “The cells were imaged with the Zeiss Axio Observer Z1 microscope with LD PlanNeoFluar objective lenses, and a Zeiss AxioCamMR3 camera was used for image acquisition.” left out, “The percentage of positive cells and standard deviation was estimated from at least five random fields of view.” left out

Substance: LN-521: substrate coated with 5 μg/cm^2 of laminin-521, the protein formed by joining α5, β2 and γ1 chains
- Albumin, percentage of positive cells and standard deviation (hESC-derived hepatocytes; day 18 of differentiation): 89.5% ± 8.7
- E CAD, percentage of positive cells and standard deviation (hESC-derived hepatocytes; day 18 of differentiation): 67.4% ± 4.4
- Ki67, percentage of positive cells and standard deviation (hESC-derived hepatocytes; day 18 of differentiation, proliferation marker): 17.4% ± 6.2
- CYP2D6, percentage of positive cells and standard deviation (hESC-derived hepatocytes; immunostaining, FIG. 6): 85.7% ± 5.7
- CYP3A, percentage of positive cells and standard deviation (hESC-derived hepatocytes; immunostaining, FIG. 6): 91.3% ± 3.7
- Expression Levels Nanog [1]: 88.7% ± 5.4
- Expression Levels OCT4 [1]: 93.2% ± 5.9
